Experimental data reported in the domain aggregation screens of Martell et al. (2025).

Test: soluble fraction after stress (log2 fold change); higher = more stays soluble; pooled small domains, quantitative proteomics
Settings: stress: pH 4
Method in brief: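 Aggregation propensity is read out as the fold change in how much of each domain remains soluble after acid stress. The custom small-domain libraries were pooled, held at pH 4 and analysed with high-throughput quantitative proteomics. On the log2 scale used, higher values mean more of the domain stayed soluble.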

Row | Sequence | soluble fraction (log2)
1 | HMDIPITFEQLPAKAQAFVKQYFKIEEIASVWRDDDIHDQDYKVYFNDGSEIEFYANGDWEEV | -0.468
2 | HMDIPTSAEAVRAYLASGFIKGIGEATARMLVDKFGAETLEIIKTEPMKLTKISGIGPKKAKMIHESYLEK | -0.0191
3 | HMDIRLMPGTVLTREYQGIEHRVTVAQDGQYEFEGRRYPSLSMIAREITGTRWSGPLFFGVK | 0.141
4 | HMDISEIEKRLLDFLEMPRSRKEIAEHLGIRTISYAIQTYITPLIDKKLVKMTIPESPRSHSQQYVRIN | -0.125
5 | HMDISRMNLSQTERAVLSVLDSQPLHTEEIIASADLRAGAIHSALISLQLKGLIKQLPGNLYVK | -0.035
6 | HMDITKPKISFEPGEMVRVVDGPFNDFSGVVEEVNYEKSKVRVAVLIFGRSTPVELQFNQIEK | -0.523
7 | HMDITTIIADVPGPKTQIKVDIKNTSLHIFGGMNFKKEIDIGDNKEIINIKYINGTLTVKLKT | -0.466
8 | HMDIVGAINKIESMKQDRYLAMHPYSITHSADGYYRTYLPADDGKRKQIKKKSKSDLEKVVIDYWTKRS | ≥ 0.43
9 | HMDIVKVYTTARAGETLASVAKRTGVDVARLAQWNDIPLKRAKQKLKTGKALALWVQREHASAYSNAPP | 0.22
10 | HMDIVQLSEKINVMKMEIPAQAIGKTVLEVNFRARFDLNIIAIENGGKLVEVIKPDYVFREGDILFLSGS | -1.31
11 | HMDIYENIDKELSKQGKSRRKLAIAAGIPPSTFQSMMERKRGLSVENLRKIAEVLNLKWYDLL | 0.135
12 | HMDIYKKFIIPATYFGSRLDHVLSELLPELSRSKIQNMIKQNLVMINGNHAAQKQKVVGDEEIIIKDI | -0.089
13 | HMDKAALGQKLRQARLDKGYTQQSLSEKADIGEVYLSEIERGLKMPSMNLFIKLITALDISADYILR | -1
14 | HMDKDTFGEFENVKLTEEEYNKLVEKLGENNTKLMIEELSTGIASKGYKYKSHYATILSWSRRRVTKLQER | -1.18
15 | HMDKEIKILKEKRLDDVQQAIRELSPQKRRVVEMKLYHNSTNQEVADKLAISVNTVKSLYTSALHDLRRIL | 0.109
16 | HMDKESQTMFRLLTGVSGVGPKVGLAILSVLSPDRVVLAISAGDHKAFTAASGVGPKLGQRIVLELKDKVG | -0.557
17 | HMDKEVLYVTVNDKKVKLDGKNHIFIDIFNYIDFDIKKPNGSIVLKLNGKNAGYMDEIKDGDKIEIYWDK | -0.277
18 | HMDKEVMEAVLRILYDDDFNPDQRDAILYFFVQELDQRTISEITGAKIGTVKKRIHDGLKKLRQKLAKEDL | -1.03
19 | HMDKGEQILQQALDKLPPKQRQVFEMRYFDEMPYREIATITETSEGALKASYHHAVKKIQQYISHL | -0.0313
20 | HMDKGQRGWINLVSVPTARVIIDGYDTGHETPLYGYEVERGKRKVTLISLDGTYERTYEIRIEPGTTTRVR | -0.947
21 | HMDKIEVVEVDMSKPYEDMTVTELQNVILDKLASNGPVTNQMKKDVSENIYHDSLVNWAKSF | -0.541
22 | HMDKIYVYTTRGQVIELPRGSTAIDFAYKIQTDIGNMIIAAIVNDKLVDANYVLHNKDRVKIVTS | -0.725
23 | HMDKLNKELVSRMMDDAAWKELSKDFPWTEQLLEKYMNYVDWKEISRNYNVVWTKSLLEKFKHRLDWHE | -1.1
24 | HMDKMIFFKNKENNDDNQLVKIGALLIHAAKIDEDFSQEEENIIKQTLINFGAGNKNINEIIEKAKKME | 0.33
25 | HMDKMVAVPNVRGIEASEAEATLIAQGLFVEVEKSDSEDANVAYGEVYAQTPKAGNRVEEGTTITIKVRTE | 0.229
26 | HMDKNNLHSVLQDVPGIGPKRMKELMRAFGSVEGMKKAGLEELAAVKGMNHKAAEALIQFFR | 0.297
27 | HMDKQGGWLTMAEAAEKLGVTHHVIRRLIKEKILPAEQVMRHAPHQIRIVDLESDAVAEALRHR | 0.155
28 | HMDKVVGSAGDVTSRITANSGEVKIDGQIWQARSYDETIAIEAGEKIEVFDLDGITLIVYPI | -1.19
